Laboratory results: paper PMC3302947 (Biochemistry, 2012)

B1: MBP-Vif(101–160) (domain or fragment)
chain: ELADQLIHLYYFDCFSDSAIRKALLGHIVSPRCEYQAGHNKVGSLQYLALAALITPKKIK
B2: MBP-Vif(101–172) (domain or fragment)
chain: ELADQLIHLYYFDCFSDSAIRKALLGHIVSPRCEYQAGHNKVGSLQYLALAALITPKKIKPPLPSVTKLTED
B3: MBP-Vif(101–176)_(PPGP) (domain or fragment)
chain: not shown
B4: MBP-Vif(101–176)_(AALA) (domain or fragment)
chain: ELADQLIHLYYFDCFSDSAIRKALLGHIVSPRCEYQAGHNKVGSLQYLALAALITPKKIKAALASVTKLTEDRWNK
B5: MBP-Vif(101–165) (domain or fragment)
chain: ELADQLIHLYYFDCFSDSAIRKALLGHIVSPRCEYQAGHNKVGSLQYLALAALITPKKIKPPLPS
B6: MBP-Vif(101–176) (domain or fragment)
chain: not shown
B7: MBP-Vif(101–176)_(PPPP) (domain or fragment)
chain: not shown
B8: MBP-Vif(101–176) V166S (domain or fragment)
chain: not shown
B9: MBP-Vif(101–192) (domain or fragment)
chain: ELADQLIHLYYFDCFSDSAIRKALLGHIVSPRCEYQAGHNKVGSLQYLALAALITPKKIKPPLPSVTKLTEDRWNKPQKTKGHRGSHTMNGH

Legend:
Test in all cases: AUC
AUC [1] = target: the molecule itself
AUC [2] = target: the molecule itself; remark: listed apart in the source
AUC [3] = target: the molecule itself; remark: listed apart in the source

Protein	percent monomer at 10 μM (AUC [1]) [%]	binding result (AUC [2])	other results
B1	< 30		
B2	< 30		
B3		binds	
B4		binds	
B5	< 30		
B6	< 30		
ITPKKIKPPLPSVTKLTEDRWNK (domain or fragment) [MBP-Vif(154–176)]			stoichiometry N (AUC [3]): 2
B7		binds	
B8		binds	
B9	< 30		
